Experimental data published in the DeepSol protein solubility set.

Test: soluble on expression in E. coli; label from the status in PepcDB or PDB records
For “MGNAKSTDSNPKKSVRRKSATTPSTSSSSRPSISSQGNRKPILSVNQRQIIKGCMDNSKDDLGERIFRRALERRDDFKQFIDNLSKGQRYENSQYLKQFLLGIVENIMDIDEINRISEEFGCNHVQFRANGFKPDFFACTADAVTTECTFLDQAAHPTSETAAAWSLLTSHVFSAVRDGYYAELRRQRKSSNAFRARVSVDVVSTGTDDGTSLSSATRRSNSPQEEIAESFDHHTVENNCVESSGNFLAPPTVY”, the “soluble on expression in E. coli” value was “not soluble”.
With “GSESKCPEELANYCDMLLRKTPLSKKLTSEEIEAKLKEVLKKLKYVQNKDVFMRYHKAHLTRRLILDISADSEIEENMVEWLREVGMPADYVNKLARMFQDIKVSEDLNQAFKEMHKNNKLALPADSVNIKILNAGAWSRSSEKVFVSLPTELEDLIPEVEEFYKKNHSGRKLHWHHLMSNGIITFKNEVGQYDLEVTTFQLAVLFAWNQRPREKISFENLKLATELPDAELRRTLWSLVAFPKLKRQVLLYEPQVNSPKDFTEGTLFSVNQEFSLIKNAKVQKRGKINLIGRLQLTTERMREEENEGIVQLRILRTQEAIIQIMKMRKKISNAQLQTELVEILKNMFLPQKKMIKEQIEWLIEHKYIRRDESDINTFIYMA” the “soluble on expression in E. coli” value was “soluble”.
In the case of “MPSIRLADLAQQLDAELHGDGDIVITGVASMQSAQTGHITFMVNPKYREHLGLCQASAVVMTQDDLPFAKSAALVVKNPYLTYARMAQILDTTPQPAQNIAPSAVIDATAKLGNNVSIGANAVIESGVELGDNVIIGAGCFVGKNSKIGAGSRLWANVTIYHEIQIGQNCLIQSGTVVGADGFGYANDRGNWVKIPQIGRVIIGDRVEIGACTTIDRGALDDTVIGNGVIIDNQCQIAHNVVIGDNTAVAGGVIMAGSLKIGRYCMIGGASVINGHMEICDKVTVTGMGMVMRPITEPGVYSSGIPLQPNKVWRKTAALVMNIDDMSKRLKSLERKVNQQD”, the “soluble on expression in E. coli” value is reported as “not soluble”.
For “MSLAYTKKKYTPKTKEQIKEETKEIMDKVLTDITKYYRSPEDMLELANFMAKFSNYSPKNMQLIRSQFENAYACANFKAFKDAGFHVNKGETAMKVFHPYVKEYVRDPRTKLAIPLGKLTEEQKKQVKNGELKVEKQTNYYLKATAFDISQTNAKPEDLPKIFPNRQFNFEINDEGHHHHHH”, the “soluble on expression in E. coli” value was “not soluble”.
In the case of “MGGSHHHHHHGMASSSNVPADMINLRLILVSGKTKEFLFSPNDSASDIAKHVYDNWPMDWEEEQVSSPNILRLIYQGRFLHGNVTLGALKLPFGKTTVMHLVARETLPEPNSQGQRNREKTGESNCCVIL”, the “soluble on expression in E. coli” value is reported as “not soluble”.
For “MKVLRHGLFKDRRVFDENYIPPELRVRRGEAEALARIYLNRLLSGAGLSDVNMIYGSIGRVGIGKTTLAKFTVKRVSEAAAKEGLTVKQAYVNAFNAPNLYTILSLIVRQTGYPIQVRGAPALDILKALVDNLYVENHYLLVILDEFQSMLSSPRIAAEDLYTLLRVHEEIPSRDGVNRIGFLLVASDVRALSYMREKIPQVESQIGFKLHLPAYKSRELYTILEQRAELGLRDTVWEPRHLELISDVYGEDKGGDGSARRAIVALKMACEMAEAMGRDSLSEDLVRKAVSENEAASIQTHELEALSIHELIILRLIAEATLGGMEWINAGLLRQRYEDASLTMYNVKPRGYTQYHIYLKHLTSLGLVDAKPSGRGMRGRTTLFRLAPHLPADRLIEVVDNIIQAKMASGYE”, the “soluble on expression in E. coli” value was “soluble”.
For “MTSMATPHVAGIAALLLQAHPSWTPDKVKTALIETADIVKPDEIADIAYGAGRVNAYKAINYDNYAKLVFTGYVANKGSQTHQFVISGASFVTATLYWDNANSDLDLYLYDPNGNQVDYSYTAYYGFEKVGYYNPTDGTWTIKVVSYSGSANYQVDVVSDGSLSQPGSSPSPQPEPTVDAKTFQGLEHHHHHH”, the “soluble on expression in E. coli” value was “soluble”.
For “MSLKRAIIIGATSGIGKEVAQRLLSEGWQIGIAGRRQSALEEFRQIAPEQIKIQSLDVTQEYSAGKLDALIHQLGGMDLFLLSSGIGFQNMELNMEIELNTARTNVEGFTRMVDTAFSYFRNNGGGHLAVISSIAGTKGLGVAPAYSATKRFQNTYIDALEQLSHLQKLDIHFTDIRPGFVATDLLNDGKHYPMLMKTDQVGRDIVRALHRKQRVAIIDGRYRILVFFWRMIPRWIWKRLPVKTEGHHHHHH”, the “soluble on expression in E. coli” value was “soluble”.
In the case of “MDYRVLLYYKYVTIDDPETFAAEHLKFCKEHHLKGRILVSTEGINGTLSGTKEDTDKYIEHMHADNRFADLTFKIDEAESHAFKKMHVRPRREIVALDLEEDINPREITGKYYSPKEFKAALEDENTVILDARNDYEYDLGHFRGAIRPDITRFRDLPEWVRNNKEQLDGKNIVTYCTGGIRCEKFSGWLVKEGFENVGQLHGGIATYGKDPETKGQYWDGKMYVFDERISVDVNQIDKTVIGKEHFDGTPCERYINCANPECNKQILVSEENEEKYLGACSYDCAKHERNRYVARHHISNEEWQRRLNNFKDVPEHTHA”, the “soluble on expression in E. coli” value is reported as “not soluble”.
In the case of “MGSDKIHHHHHHMSHNKFDIIPAASFSNIGLEMIPPFPGLSSWVQCLWVNNDLKNSSRHVEEKLYPDAGSSLTFEIRNTRINARYFHHTRVVTHRWDTSTRHISVRFRPGGAKALLGLDIDDSQNIEIDLFDTPVSQQLSLQPLMDMLPALSADQQVQAVQNWLLTLSYRAQEPSRKWSTLLAHASADLIPPQQLALQNGFSRRTLERQLRKYLGFTPNQLHGFAQIRAARQYLILTPDSLSDIALACGYFDQAHFTNAFREQTLETPLQYRQRKMSQISNR”, the “soluble on expression in E. coli” value is reported as “not soluble”.
In the case of “MIKSYKIRGTSLTVNRSDSYPDACNWTADSFGMLFYDPEYDLSTESLSITLDAGNDWVPEGGLVYESLPVKVTYENPEMMDYGTDWFNQGYSALGWNGEEYAYLGTDRGIVNILLEEDEKILYPNEEYDLKEGYTLKVTDLASDKACLTLSRNKLPVYSSIISPGKSADLGTHTFLYKKELNGVEVPLFSVYVDSVIQGDELSAVNLKHLLHFSDSPLELNYGKEYGELTIVETYPKLRLENKHVVWSGSDINVTEDIWIGRFEKKTAGNLFVTFYPYMNKVENVRSILPSVSSWSIPAMSIEEYLIGVLEHHHHHH”, the “soluble on expression in E. coli” value is reported as “not soluble”.
For “MRVLVTGGSGYIGSHTCVQLLQNGHDVIILDNLCNSKRSVLPVIERLGGKHPTFVEGDIRNEALMTEILHDHAIDTVIHFAGLKAVGESVQKPLEYYDNNVNGTLRLISAMRAANVKNFIFSSAATVYGDNPKIPYVESFPTGTPQSPYGKSKLMVEQILTDLQKAQPDWSIALLRYFNPVGAHPSGDMGEDPQGIPNNLMPYIAQVAVGRRDSLAIFGNDYPTEDGTGVRDYIHVMDLADGHVVAMEKLANKPGVHIYNLGAGVGNSVLDVVNAFSKACGKPVNYHFAPRREGDLPAYWADASKADRELNWRVTRTLDEMAQDTWHWQSRHPQGYPD”, the “soluble on expression in E. coli” value was “soluble”.
With “MAHHHHHHMPVPVLLDNYAYFILSCKTKRCAVVDPADPTLVLNMLEVVRNLTQIDFMITDILTTHKHWDHAGGNMEMRALSQCSSERCRALLSPELNIYGSEVDRPHACNKLIKGSDELVVAGGGAKVVVLSTPGHTGGSVMFLVGDALPKEGEPQRLALFTGDCVFCGGCGALFEATSVDETLETVDIFNNNRTWVHPATGDIIHTDDVLIYVGHEYTERSLDMILSVQRTANQTGEQSAIATSNYCDTVAQARNGARRLRSCVVADDVYMKVTSMETKAPLHLRACTVPSTVTIEKKVNALLSLKRCVLEEFQGKPYASMAVQRAIYTSTKRNDTG” the “soluble on expression in E. coli” value was “not soluble”.
For “MSHQCSLSELNENLVPFTARQIKSSLIWCAEDVRNPDELQNACSYIIDPGSTASAKVFHAERYGGSGIQRNGGGARCGFDGNYQVKGIGSNPLVGEGTDERHSNGALGAVHAIYEALWGEVLAQILPYSAVRVRAVLLTDLYTEKAFERSGRKSRRALLVREPVVRPAHFERAPYFQVKPEYSSLLIHDACRVRSVIHKLPGYLPVPPEEIDAEARTDPRIYCIEGLCELARREAWQMAFCRTRFLRLTTSPSNIAMDGRLMDFNGLSCLFPGDSPADFGYKLRLAELAKEPMVLMQGLSDLCLYIGKYMFDPDFTLAARLKVEEIFQKTFHEACYYCYLELLGIPGEFITQKEIPDILKELVNSFVALLNKYYEKSHAQDIVNQDGSPLQKLVVTLIHHRHNQKQALNSSIKNDVYFTVAQQCFSQAIHWLTQGSTRRQINASLLLKEIEHHTMKRLQPREELRKENMCEKIAILLDNHGDDPLFLQEAISDMKNFMLKFSRDAFGYLEPIRNTV”, the “soluble on expression in E. coli” value was “not soluble”.
For “MEIFQKAKAVRLRSHHDKYLVADEDEESVTQERNGSAGAAKWTVEIIPGSTNLIRLKSAYGKYLTASNKPFLLGATGKKVLQTKPSRLDSSLAWEPIRDSALVKLKTRYGNFLRGNGGLPPWRNSVTHDIPHRSATQEWVLWHIDVVEILPANANSDHHHQHLQLQQPPSPLHHSDSLDFTPGSPSRSDRFFRQESTDSLAVGSPPKSEGRVIYYHVADDDDDVEDDSVEVSSFTFKGNGVEELTMRLKEESNVEDVIVCTRSPLNGKLFPLRLQLPPNNADMTVVLVPKSSKSESLLVLISSQVVALSLMFSVFLDLTVAEKFIK”, the “soluble on expression in E. coli” value was “not soluble”.
For “MSLQCDDCKTKLMPLVAHEVDHIDNRRDVAGDLDDSPDNLRAVNRDCHRRITMRQIAEAGAVGTMAPVWMPITQKPLTVVVGPPSAGKSTWVKAAAKASDLVIDLDILAPTVIGKPMWIADSRERSLVIRERNSLVAEYMRGKTAHPHCFLIDTAGSFKRRKFWLDRGADVVLLDTDKDICRARIRQCSARPESTRAGRLAAVDRWEEGHHHHHH”, the “soluble on expression in E. coli” value was “not soluble”.
For “MLRSVPFDLVTRLMTTHFVSRQIFIGSGRVGIGEHSENAGYQLSQRADYFHMKVGLQTTFDRPIINTRDESHSTDEYRRLHVIVGDANRMDVPQALKLGTTSMLLWLLEHADMAEIDLNEALGPLTLADPVEAMHTVSHDLTLAAPLPLETGGTTTAWQMQVTLRGLVYAAAATVYGTDTSGEPAWPDRSTRNIMAMWGQALADVATVRHADDDGRLTMREQASRLEWLLKWQLLEKLRRKTGSDWTDRRLAAVDLKWAALDPADSIFTRLAGQTERLVTDKQLAEAVGQAPADTRAWLRAEIVRRFPEQVIAASWSHLTVRGESSGDENVENSMVSLDMSNPLKFTESLCSEAFERVHTASGIVESLR”, the “soluble on expression in E. coli” value was “not soluble”.
For “VLTDIQIAQSCKMKPITQVAAELGIDEEELELYGKYKAKLSDKLWERVKDRPDGKLVLVTAINPTPAGEGKTTTTVGLGQAMARIGKKAVIALREPSLGPVMGIKGGAAGGGYSQVVPMEDINLHFTGDMHAITAANNLLSAAIDNHIQQGNELNIDVRQIIWKRAMDMNDRALRNIVVGLGGKANGVPREDGFQITVASEVMAVLCLSTGLMDLKERLGRILIGYTYDGKPVFAKDLKVNGAMALLLKDAIKPNLVQTLENTPAIVHGGPFANIAHGCNSIVATRLGLKLADYCITEAGFGADLGAEKFFNIKCRYAGLKPDLVVLVATIRALKYNGGVKKENLGIENLPALEKGFVNLEKHIENIRKFQVPLLVAINHFDTDSEAEIEYVKNRCKALNVEVAFSDVFSKGSEGGIELAEKVVKLTETQKSNFKPLYDVNLSIREKIEIIAREIYGADSVNILPAAERAIKKIEELKMDKLPICVAKTQYSLSDDPTLLGRPQGFVITVREIKLSSGAGFIVAITGDIMTMPGLPKVPAAEKIDIDENGVITGLF”, the “soluble on expression in E. coli” value was “soluble”.
In the case of “LGFLPKEKKDKIKRFIKYEDALMSLTAEILIRAVVCSKLGIKNESVKFNRTTYGKPYLEGYDDFHFNLSHSGSWVVCAVSSKPVGIDIEKIREVDLDIAKRFFSKEEASDLFAKEDNEKTEYFFELWTLKESYIKADGRGLSLPLNSFFFRIENDNVIFVSESEKKKFFFKRYDIDKGYKLAVCSMESHFPEDVEIKSFEEVCKFLCER”, the “soluble on expression in E. coli” value is reported as “not soluble”.
